{
  "source": "IntAct's records for PubMed 29039417",
  "parents": {"B1": {"name": "Protein PTHB1 (Homo sapiens), Q3SYG4 (parent)", "chain": "MSLFKARDWWSTILGDKEEFDQGCLCLANVDNSGNGQDKIIVGSFMGYLRIFSPHPAKTGDGAQAEDLLLEVDLRDPVLQVEVGKFVSGTEMLHLAVLHSRKLCVYSVSGTLGNVEHGNQCQMKLMYEHNLQRTACNMTYGSFGGVKGRDLICIQSMDGMLMVFEQESYAFGRFLPGFLLPGPLAYSSRTDSFLTVSSCQQVESYKYQVLAFATDADKRQETEQQKLGSGKRLVVDWTLNIGEQALDICIVSFNQSASSVFVLGERNFFCLKDNGQIRFMKKLDWSPSCFLPYCSVSEGTINTLIGNHNNMLHIYQDVTLKWATQLPHIPVAVRVGCLHDLKGVIVTLSDDGHLQCSYLGTDPSLFQAPNVQSRELNYDELDVEMKELQKIIKDVNKSQGVWPMTEREDDLNVSVVVSPNFDSVSQATDVEVGTDLVPSVTVKVTLQNRVILQKAKLSVYVQPPLELTCDQFTFEFMTPDLTRTVSFSVYLKRSYTPSELEGNAVVSYSRPTDRNPDGIPRVIQCKFRLPLKLICLPGQPSKTASHKITIDTNKSPVSLLSLFPGFASQSDDDQVNVMGFHFLGGARITVLASKTSQRYRIQSEQFEDLWLITNELILRLQEYFEKQGVKDFACSFSGSIPLQEYFELIDHHFELRINGEKLEELLSERAVQFRAIQRRLLARFKDKTPAPLQHLDTLLDGTYKQVIALADAVEENQGNLFQSFTRLKSATHLVILLIALWQKLSADQVAILEAAFLPLQEDTQELGWEETVDAAISHLLKTCLSKSSKEQALNLNSQLNIPKDTSQLKKHITLLCDRLSKGGRLCLSTDAAAPQTMVMPGGCTTIPESDLEERSVEQDSTELFTNHRHLTAETPRPEVSPLQGVSE", "partner": "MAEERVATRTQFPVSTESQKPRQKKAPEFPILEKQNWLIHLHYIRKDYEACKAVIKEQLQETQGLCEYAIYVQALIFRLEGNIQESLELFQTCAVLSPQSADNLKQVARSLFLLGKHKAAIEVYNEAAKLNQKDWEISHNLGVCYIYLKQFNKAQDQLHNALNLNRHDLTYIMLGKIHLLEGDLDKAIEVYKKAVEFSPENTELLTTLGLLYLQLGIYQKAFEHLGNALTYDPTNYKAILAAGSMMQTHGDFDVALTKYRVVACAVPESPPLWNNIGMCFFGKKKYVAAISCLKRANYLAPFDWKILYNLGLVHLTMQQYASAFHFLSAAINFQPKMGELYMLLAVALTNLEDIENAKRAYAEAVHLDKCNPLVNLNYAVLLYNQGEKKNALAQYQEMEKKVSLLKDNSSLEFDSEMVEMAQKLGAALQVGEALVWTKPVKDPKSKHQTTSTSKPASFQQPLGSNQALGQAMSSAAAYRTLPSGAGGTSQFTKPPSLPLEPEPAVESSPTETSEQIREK"}},
  "data": [
    {"variants_of": "B1", "details": "with bbs4_human BBS4, Q96RK4", "values": [
      {"variant": "F474A", "effect of a mutation on the interaction": "with no effect"},
      {"variant": "F474K", "effect of a mutation on the interaction": "with no effect"},
      {"variant": "L465K", "effect of a mutation on the interaction": "disrupting interaction strength"},
      {"variant": "V489A", "effect of a mutation on the interaction": "with no effect"},
      {"variant": "V489K", "effect of a mutation on the interaction": "with no effect"},
      {"variant": "V489E", "effect of a mutation on the interaction": "with no effect"},
      {"variant": "F472K", "effect of a mutation on the interaction": "with no effect"},
      {"variant": "F472E", "effect of a mutation on the interaction": "with no effect"},
      {"variant": "F472A", "effect of a mutation on the interaction": "with no effect"},
      {"variant": "V485E", "effect of a mutation on the interaction": "with no effect"},
      {"variant": "V485K", "effect of a mutation on the interaction": "with no effect"},
      {"variant": "V485A", "effect of a mutation on the interaction": "with no effect"},
      {"variant": "D513E", "effect of a mutation on the interaction": "with no effect"},
      {"variant": "D513K", "effect of a mutation on the interaction": "with no effect"},
      {"variant": "D513A", "effect of a mutation on the interaction": "with no effect"},
      {"variant": "F487A", "effect of a mutation on the interaction": "with no effect"},
      {"variant": "F487K", "effect of a mutation on the interaction": "with no effect"},
      {"variant": "F487E", "effect of a mutation on the interaction": "with no effect"},
      {"variant": "F487S", "effect of a mutation on the interaction": "disrupting interaction strength"},
      {"variant": "G502K", "effect of a mutation on the interaction": "with no effect"},
      {"variant": "G502E", "effect of a mutation on the interaction": "with no effect"},
      {"variant": "G502A", "effect of a mutation on the interaction": "with no effect"},
      {"variant": "G502R", "effect of a mutation on the interaction": "disrupting interaction strength"},
      {"variant": "S509A", "effect of a mutation on the interaction": "with no effect"},
      {"variant": "S509P", "effect of a mutation on the interaction": "disrupting interaction strength"},
      {"variant": "S509K", "effect of a mutation on the interaction": "with no effect"},
      {"variant": "S509E", "effect of a mutation on the interaction": "with no effect"},
      {"variant": "T484A", "effect of a mutation on the interaction": "with no effect"},
      {"variant": "T484K", "effect of a mutation on the interaction": "with no effect"},
      {"variant": "T484E", "effect of a mutation on the interaction": "with no effect"},
      {"variant": "T496A", "effect of a mutation on the interaction": "with no effect"},
      {"variant": "T496K", "effect of a mutation on the interaction": "with no effect"},
      {"variant": "T496E", "effect of a mutation on the interaction": "with no effect"},
      {"variant": "N515K", "effect of a mutation on the interaction": "with no effect"},
      {"variant": "N515E", "effect of a mutation on the interaction": "with no effect"},
      {"variant": "N515A", "effect of a mutation on the interaction": "with no effect"},
      {"variant": "N515C", "effect of a mutation on the interaction": "disrupting interaction strength"},
      {"variant": "V522K", "effect of a mutation on the interaction": "with no effect"},
      {"variant": "V522A", "effect of a mutation on the interaction": "with no effect"},
      {"variant": "V522E", "effect of a mutation on the interaction": "with no effect"},
      {"variant": "I523A", "effect of a mutation on the interaction": "with no effect"},
      {"variant": "I523K", "effect of a mutation on the interaction": "with no effect"},
      {"variant": "I523E", "effect of a mutation on the interaction": "with no effect"},
      {"variant": "D480K", "effect of a mutation on the interaction": "with no effect"},
      {"variant": "D480E", "effect of a mutation on the interaction": "with no effect"},
      {"variant": "D480A", "effect of a mutation on the interaction": "with no effect"},
      {"variant": "K526A", "effect of a mutation on the interaction": "with no effect"},
      {"variant": "K526E", "effect of a mutation on the interaction": "with no effect"},
      {"variant": "T482K", "effect of a mutation on the interaction": "with no effect"},
      {"variant": "T482A", "effect of a mutation on the interaction": "with no effect"},
      {"variant": "T482E", "effect of a mutation on the interaction": "with no effect"},
      {"variant": "P516K", "effect of a mutation on the interaction": "with no effect"},
      {"variant": "P516A", "effect of a mutation on the interaction": "with no effect"},
      {"variant": "P516E", "effect of a mutation on the interaction": "with no effect"},
      {"variant": "Y495A", "effect of a mutation on the interaction": "with no effect"},
      {"variant": "Y495E", "effect of a mutation on the interaction": "with no effect"},
      {"variant": "Y495K", "effect of a mutation on the interaction": "with no effect"},
      {"variant": "Y490K", "effect of a mutation on the interaction": "with no effect"},
      {"variant": "Y490A", "effect of a mutation on the interaction": "with no effect"},
      {"variant": "Y490E", "effect of a mutation on the interaction": "with no effect"},
      {"variant": "E466K", "effect of a mutation on the interaction": "with no effect"},
      {"variant": "E466A", "effect of a mutation on the interaction": "with no effect"},
      {"variant": "P511K", "effect of a mutation on the interaction": "with no effect"},
      {"variant": "P511E", "effect of a mutation on the interaction": "with no effect"},
      {"variant": "P511A", "effect of a mutation on the interaction": "with no effect"},
      {"variant": "D470E", "effect of a mutation on the interaction": "with no effect"},
      {"variant": "D470A", "effect of a mutation on the interaction": "with no effect"},
      {"variant": "D470K", "effect of a mutation on the interaction": "with no effect"},
      {"variant": "S486R", "effect of a mutation on the interaction": "disrupting interaction strength"},
      {"variant": "S486E", "effect of a mutation on the interaction": "with no effect"},
      {"variant": "S486K", "effect of a mutation on the interaction": "with no effect"},
      {"variant": "S486A", "effect of a mutation on the interaction": "with no effect"},
      {"variant": "E499K", "effect of a mutation on the interaction": "with no effect"},
      {"variant": "E499A", "effect of a mutation on the interaction": "with no effect"},
      {"variant": "N503K", "effect of a mutation on the interaction": "with no effect"},
      {"variant": "N503E", "effect of a mutation on the interaction": "with no effect"},
      {"variant": "N503A", "effect of a mutation on the interaction": "with no effect"},
      {"variant": "T468E", "effect of a mutation on the interaction": "with no effect"},
      {"variant": "T468A", "effect of a mutation on the interaction": "with no effect"},
      {"variant": "T468K", "effect of a mutation on the interaction": "with no effect"},
      {"variant": "P479E", "effect of a mutation on the interaction": "with no effect"},
      {"variant": "P479A", "effect of a mutation on the interaction": "with no effect"},
      {"variant": "P479K", "effect of a mutation on the interaction": "with no effect"},
      {"variant": "T478K", "effect of a mutation on the interaction": "with no effect"},
      {"variant": "T478E", "effect of a mutation on the interaction": "with no effect"},
      {"variant": "T478A", "effect of a mutation on the interaction": "with no effect"},
      {"variant": "P497E", "effect of a mutation on the interaction": "with no effect"},
      {"variant": "P497K", "effect of a mutation on the interaction": "with no effect"},
      {"variant": "P497A", "effect of a mutation on the interaction": "with no effect"},
      {"variant": "T512A", "effect of a mutation on the interaction": "with no effect"},
      {"variant": "T512K", "effect of a mutation on the interaction": "with no effect"},
      {"variant": "T512E", "effect of a mutation on the interaction": "with no effect"}
    ]}
  ]
}
